Results on one compound are retold here after article PMC13142116, “Development and structure-guided characterization of a novel ACE2-binding macrocyclic peptide” (Journal of Structural Biology: X, 2026).

The fraction remaining is what is left of the initial amount, in per cent. A high value points to less turnover.

The nature of one data set: in vitro. Type of data set: in vitro ADME. Particulars: mouse, plasma. As to the method: Additionally, the integrity of [^67Ga]Ga-DOTA-WJL-63 (20 MBq/nmol) in mouse and human blood plasma (Rockland Immunochemicals, Inc. PA, USA and Blood donation SRK Aargau-Solothurn, Switzerland) was determined using thin layer chromatography (TLC). Reversed phase C-18 plates (TLC Silica gel 60 RP-18; Merck) were used as the stationary phase and a mixture of citrate buffer (pH 5.5; 0.1 M) and acetonitrile (7:3; v/v) as the mobile phase. Under these conditions, uncoordinated gallium-67 migrated with the front while the radiopeptide and potential larger fragments migrated to the center of the plate. […] The quantification of the signals was carried out using the OptiQuant software (version 5.0, Bright Instrument Co Ltd., PerkinElmer). The obtained chromatograms were analyzed by determination of the peak area of the radiolabeled peptide, the released gallium-67 as well as degradation products of unknown structure. The quantity of the intact product was expressed as the percentage of the sum of integrated peak areas of the entire chromatogram and set in relation to the value determined at the respective timepoints of the radiopeptide diluted in saline which was set as 100% to correct for TLC artefacts. The results were then expressed as average ± SD from n = 3 independent experiments.

Data set [1] is classed as physicochemical. The protocol:
The distribution coefficient (logD value) of [^67Ga]Ga-DOTA-WJL-63 was determined using a shake-flask method as previously reported for DX600 radiopeptides ([Beyer et al., 2023]). The distribution coefficients were indicated as the average of n = 3 independent measurements ± standard deviation (SD), each performed with five replicates.

Positions of bridges follow the written chain, without caps; N, C: chain ends. Non-standard residues stand in square brackets, D forms with d. Residues, ends and D or L forms follow the SMILES beside them. *: point of attachment. DOTA = O=C(O)CN1CCN(CC(=O)O)CCN(CC(=O)*)CCN(CC(=O)O)CC1

As for `CC[C@H](C)[C@@H]1NC(=O)[C@H](CCC(N)=O)NC(=O)[C@H]([C@@H](C)O)NC(=O)[C@H](CO)NC(=O)[C@@H](Cc2ccc(O)cc2)NC(=O)CSC[C@@H](C(=O)NCC(=O)N[C@@H](CO)C(=O)NCC(=O)N[C@@H](CO)C(=O)NCC(=O)N[C@@H](CO)C(=O)N[C@@H](CCCCNC(=O)CN2CCN(CC(=O)O)CCN(CC(=O)O)CCN(CC(=O)O)CC2)C(N)=O)NC(=O)CNC(=O)[C@H](CCCNC(=N)N)NC(=O)[C@H](CO)NC(=O)[C@H](CC(=O)O)NC(=O)[C@H](CCCNC(=N)N)NC(=O)[C@H]([C@@H](C)O)NC(=O)[C@H](Cc2ccccc2)NC(=O)CNC(=O)[C@H](CCCNC(=N)N)NC(=O)[C@H](CO)NC1=O` [[^67Ga]Ga-DOTA-WJL-63, metal not drawn] ({CH2CO}-[dY]STQISRGFTRDSRGCGSGSGSK(DOTA)-NH2; thioether N-16), in the data set “in vitro”, the amount remaining at 1 h, 10 MBq/200 µL was 91% and the amount remaining at 3 h, 10 MBq/200 µL turned out to be 69%. The logD value entry in data set [1] is reported as “− 4.4 ± 0.1”.
